Measured values: patent US20220041746A1 (Sanofi, published 2022)
Blank lines part the entries; values can stand above or below the binder they belong to.

What was measured:
[1] = biological target: human CD38 (Cambridge Biologics LLC Cat #03-01-0369) (human, UniProt P28907 43-300); assay: ELISA on coated hCD38-His
Description: The binding properties of the purified antibodies were analyzed either using ELISA or SPR methods. For ELISA, corresponding antigens for each binding site in the trispecific binding protein were used to coat a 96-well Immuno Plate (Nunc 439454, Thermo Fisher Scientific) overnight at 4° C. using 2 μg/ml each antigen m PBS(pH7.4). The coated plate was blocked using 5% skim milk 12% BSA in PBS for one hour at RT, followed by washing with PBS+[…] three times (Aqua Max 400, Molecular Devices). Serial dilution of antibodies (trispecific and control Abs) were prepared and added onto the ELISA plates (100 μl/well in duplicate), incubated at RT for one hour, followed by washing 5 times with PBS+0.25% Tween 20.
The reaction was terminated by adding 50 μl 1M H₂SO₄, and OD₄₅₀ was measured using SpectraMax M5 (Molecular Devices) and analyzed using SoltMax Pro6.3 software (Molecular Devices). The final data was transferred to GraphPad Prism software (GraphPad Software, CA. USA), and plotted as shown. EC50 was calculated using the same software.

[2] = biological target: human CD28 (SPR of Example 4) (human, UniProt P10747 19-152, limits assumed); assay: SPR, mono-, bi- and trispecific formats (FIG. 5)
hCD38-his (SEQ ID NO: 2) [3] = biological target: T1, hCD38-his (SEQ ID NO: 2) (human, UniProt P28907 45-300); assay: SPR, mAb captured via anti-human Fc, soluble CD38-his injected
T1 construct: His-tagged soluble protein derived from isoform A; also called human CD38-histag; hCD38::Histag
Description: (§1) The binding properties of the anti-huCD38 mabs were evaluated using a BIAcore 2000 (BIAcore Inc., Uppsala, Ni). […] The surface was regenerated between injections using 30 μL of 50 mM NaOH-1 M NaCl. Individual sensorgrams wore analyzed using BIAsimulation software.

cCD38-his (SEQ ID NO: 4) [4] = biological target: T2, cCD38-his (SEQ ID NO: 4) (cynomolgus monkey, UniProt Q5VAN0 46-301); assay: as above
T2 construct: His-tagged soluble protein; also called cyno CD38-histag; cynoCD38::Histag
Description: as §1

[5] = biological target: T3, human CD38 expressed on the cell surface (human, UniProt P28907 1-300); assay: flow cytometry (column FACS EC50 nM, hu)
T3 construct: whole, on cells; also called hCD38-expressing cells; huCD38
Description: (§2) The recombinant cell line was described by J. Deckket et al. 2014 Clin Cancer Res 20:4574-4583. […] Antibody binding was evaluated after centrifugation and resuspension of cells by adding 200 μL/well PBS 1% BSA and read using Guava® easvCyte™ 8HT Flow Cytometry System. Apparent KD and EC50 values were estimated using BIOST@T-BINDING and BIOST@T-SPEED software, respectively.

cCD38-his (SEQ ID NO: 4) [6] = biological target: T2, cCD38-his (SEQ ID NO: 4); assay: ELISA (column ELISA EC50 nM, cyno)
[7] = biological target: T4, cynomolgus monkey CD38 expressed on the cell surface (cynomolgus monkey, UniProt Q5VAN0 1-301); assay: flow cytometry (column FACS EC50 nM, cyno)
T4 construct: whole, on cells; also called cCD38-expressing cells
Description: as §2

hCD38-his (SEQ ID NO: 2) [8] = biological target: T1, hCD38-his (SEQ ID NO: 2); assay: ELISA (column ELISA EC50 nM, hu)
[9] = biological target: T4, cynomolgus monkey CD38 expressed on the …; assay: flow cytometry on preB::300.19 cells, apparent KD
Description: as §2

[10] = biological target: T3, human CD38 expressed on the cell surface; assay: flow cytometry on preB::300.19 cells, apparent KD
Description: as §2

B1: mAb2xCD28supxCD3mid IgG4 FALA (other)
heavy 1: QVQLVQSGAEVVKPGASVKVSCKASGYTFTSYYIHWVRQAPGQGLEWIGSIYPGNVNTNYAQKFQGRATLTVDTSISTAYMELSRLRSDDTAVYYCTRSHYGLDWNFDVWGKGTTVTVSSSQVQLVESGGGVVQPGRSLRLSCAASGFTFTKAWMHWVRQAPGKQLEWVAQIKDKSNSYATYYADSVKGRFTISRDDSKNTLYLQMNSLRAEDTAVYYCRGVYYALSPFDYWGQGTLVTVSSRTASTKGPSVFPLAPCSRSTSESTAALGCLVKDYFPEPVTVSWNSGALTSGVHTFPAVLQSSGLYSLSSVVTVPSSSLGTKTYTCNVDHKPSNTKVDKRVESKYGPPCPPCPAPEAAGGPSVFLFPPKPKDTLMISRTPEVTCVVVDVSQEDPEVQFNWYVDGVEVHNAKTKPREEQFNSTYRVVSVLTVLHQDWLNGKEYKCKVSNKGLPSSIEKTISKAKGQPREPQVCTLPPSQEEMTKNQVSLSCAVKGFYPSDIAVEWESNGQPENNYKTTPPVLDSDGSFFLVSKLTVDKSRWQEGNVFSCSVMHEALHNHYTQKSLSLSLG
light 1: DIVMTQTPLSLSVTPGQPASISCKSSQSLVHNNANTYLSWYLQKPGQSPQSLIYKVSNRFSGVPDRFSGSGSGTDFTLKISRVEAEDVGVYYCGQGTQYPFTFGSGTKVEIKGQPKAAPDIQMTQSPSSLSASVGDRVTITCQASQNIYVWLNWYQQKPGKAPKLLIYKASNLHTGVPSRFSGSGSGTDFTLTISSLQPEDIATYYCQQGQTYPYTFGQGTKLEIKTKGPSRTVAAPSVFIFPPSDEQLKSGTASVVCLLNNFYPREAKVQWKVDNALQSGNSQESVTEQDSKDSTYSLSSTLTLSKADYEKHKVYACEVTHQGLSSPVTKSFNRGEC
heavy 2: QVQLVQSGAEVVKPGASVKVSCKASGYTFTSYAMHWVKEAPGQRLEWIGYIYPGQGGTNYNQKFQGRATLTADTSASTAYMELSSLRSEDTAVYFCARTGGLRRAYFTYWGQGTLVTVSSASTKGPSVFPLAPCSRSTSESTAALGCLVKDYFPEPVTVSWNSGALTSGVHTFPAVLQSSGLYSLSSVVTVPSSSLGTKTYTCNVDHKPSNTKVDKRVESKYGPPCPPCPAPEAAGGPSVFLFPPKPKDTLMISRTPEVTCVVVDVSQEDPEVQFNWYVDGVEVHNAKTKPREEQFNSTYRVVSVLTVLHQDWLNGKEYKCKVSNKGLPSSIEKTISKAKGQPREPQVYTLPPCQEEMTKNQVSLWCLVKGFYPSDIAVEWESNGQPENNYKTTPPVLDSDGSFFLYSKLTVDKSRWQEGNVFSCSVMHEALHNHYTQKSLSLSLG
light 2: DIVLTQSPATLSLSPGERATISCRASQSVSSYGQGFMHWYQQKPGQPPRLLIYGASSRATGIPARFSGSGSGTDFTLTISPLEPEDFAVYYCQQNKEDPWTFGGGTKLEIKRTVAAPSVFIFPPSDEQLKSGTASVVCLLNNFYPREAKVQWKVDNALQSGNSQESVTEQDSKDSTYSLSSTLTLSKADYEKHKVYACEVTHQGLSSPVTKSFNRGEC
notes: also called CD38VH1×CD28sup×CD3mid IgG4 FALA
binding result [1]: binds

B4: mAb4 (antibody, human IgG1, kappa, V domains shown)
VH: QVQLVQSGAEVVKSGASVKVSCKASGYTFTSFNMHWVKEAPGQGLEWIGYIYPGNGGTNYNQKFQGRATLTADTSASTAYMEISSLRSEDTAVYFCARTGGLRRAYFTYWGQGTLVTVSS
VL: DIVLTQSPATLSLSPGERATISCRASESVDSYGNGFMHWYQQKPGQPPRLLIYLASSRATGIPARFSGSGSGTDFTLTISPLEPEDFAVYYCQQNKEDPWTFGGGTKLEIKR
notes: also called antiCD38_C2-CD38-1_VH5-VL3
Kd (hCD38-his (SEQ ID NO: 2) [3]): 0.822 nM
koff (hCD38-his (SEQ ID NO: 2) [3]): 0.000529 s⁻¹
Kd (cCD38-his (SEQ ID NO: 4) [4]): 1.14 nM
koff (cCD38-his (SEQ ID NO: 4) [4]): 0.000201 s⁻¹
EC50 [5]: 0.55 nM
EC50 (cCD38-his (SEQ ID NO: 4) [6]): 0.17 nM
EC50 [7]: 1.15 nM
EC50 (hCD38-his (SEQ ID NO: 2) [8]): 0.16 nM
Kd [9]: 1.15 nM
Kd [10]: 0.33 nM

B5: anti-CD28sup antigen binding domain (antibody, V domains shown)
VH: QVQLVQSGAEVVKPGASVKVSCKASGYTFTSYYIHWVRQAPGQGLEWIGSIYPGNVNTNYAQKFQGRATLTVDTSISTAYMELSRLRSDDTAVYYCTRSHYGLDWNFDVWGKGTTVTVSS
VL: DIQMTQSPSSLSASVGDRVTITCQASQNIYVWLNWYQQKPGKAPKLLIYKASNLHTGVPSRFSGSGSGTDFTLTISSLQPEDIATYYCQQGQTYPYTFGQGTKLEIK
notes: also called super agonist, "sup"
binding result [2]: binds

Next, values leading:

binding result [1]: binds
B2: mAb2xCD28supxCD3mid IgG1 NNSA (other)
heavy 1: QVQLVQSGAEVVKPGASVKVSCKASGYTFTSYYIHWVRQAPGQGLEWIGSIYPGNVNTNYAQKFQGRATLTVDTSISTAYMELSRLRSDDTAVYYCTRSHYGLDWNFDVWGKGTTVTVSSSQVQLVESGGGVVQPGRSLRLSCAASGFTFTKAWMHWVRQAPGKQLEWVAQIKDKSNSYATYYADSVKGRFTISRDDSKNTLYLQMNSLRAEDTAVYYCRGVYYALSPFDYWGQGTLVTVSSRTASTKGPSVFPLAPSSKSTSGGTAALGCLVKDYFPEPVTVSWNSGALTSGVHTFPAVLQSSGLYSLSSVVTVPSSSLGTQTYICNVNHKPSNTKVDKKVEPKSCDKTHTCPPCPAPELLGGPSVFLFPPKPKDTLMISRTPEVTCVVVDVSHEDPEVKFNWYVDGVEVHNAKTKPREEQYNNASRVVSVLTVLHQDWLNGKEYKCKVSNKALPAPIEKTISKAKGQPREPQVCTLPPSRDELTKNQVSLSCAVKGFYPSDIAVEWESNGQPENNYKTTPPVLDSDGSFFLVSKLTVDKSRWQQGNVFSCSVMHEALHNHYTQKSLSLSPG
light 1: B1 light 1
heavy 2: QVQLVQSGAEVVKPGASVKVSCKASGYTFTSYAMHWVKEAPGQRLEWIGYIYPGQGGTNYNQKFQGRATLTADTSASTAYMELSSLRSEDTAVYFCARTGGLRRAYFTYWGQGTLVTVSSASTKGPSVFPLAPSSKSTSGGTAALGCLVKDYFPEPVTVSWNSGALTSGVHTFPAVLQSSGLYSLSSVVTVPSSSLGTQTYICNVNHKPSNTKVDKKVEPKSCDKTHTCPPCPAPELLGGPSVFLFPPKPKDTLMISRTPEVTCVVVDVSHEDPEVKFNWYVDGVEVHNAKTKPREEQYNNASRVVSVLTVLHQDWLNGKEYKCKVSNKALPAPIEKTISKAKGQPREPQVYTLPPCRDELTKNQVSLWCLVKGFYPSDIAVEWESNGQPENNYKTTPPVLDSDGSFFLYSKLTVDKSRWQQGNVFSCSVMHEALHNHYTQKSLSLSPG
light 2: B1 light 2
notes: also called CD38VH1×CD28sup×CD3mid IgG1 NNAS

binding result [2]: binds
B3: anti-CD28cvn antigen binding domain (antibody, V domains shown)
VH: QVQLQESGPGLVKPSQTLSLTCTVSGFSLSDYGVHWVRQPPGKGLEWLGVIWAGGGTNYNPSLKSRKTISKDTSKNQVSLKLSSVTAADTAVYYCARDKGYSYYYSMDYWGQGTTVTVSS
VL: DIVLTQSPASLAVSPGQRATITCRASESVEYYVTSLMQWYQQKPGQPPKLLIFAASNVESGVPARFSGSGSGTDFTLTINPVEANDVANYYCQQSRKVPYTFGQGTKLEIK
notes: also called anti-CD28evn; conventional agonist, "cvn"
